Data reported in the RNAGym collection of RNA variant scans (doi:10.1093/molbev/msab373).

B1: Azoarcus group I ribozyme (parent)
chain: GUGCCUUGCGCCGGGAAACCACGCAAGGGAUGGUGUCAAAUUCGGCGAAACCUAAGCGCCCGCCCGGGCGUAUGGCAACGCCGAGCCAAGCUUCGGCGCCUGCGCCGAUGAAGGUGUAGAGACUAGACGGCACCCACCUAAGGCAAACGCUAUGGUGAAGGCAUAGUCCAGGGAGUGGCGAAAGUCACACAAACCGG

Variants of: B1
Assay: reverse-splicing fitness (ratio to wild type); higher = more active; in vitro selection; Mg2+ level not given
Method in brief: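 An in vitro group I ribozyme library with randomized positions was T7-transcribed and gel-purified. In triplicate, 10 pmol RNA in EPPS pH 7.5 was reacted with 50 pmoles of a 30-nt RNA substrate for 1 h at 37 °C across several added MgCl2 levels (1–48 mM), then stopped with EDTA. Products were reverse transcribed from a substrate-complementary primer, PCR-amplified and sequenced (HiSeq 4000). Fitness is a variant's read proportion after selection over that before, normalised to wild type.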

Variant | reverse-splicing fitness
C82G A111G A120U A145U C169A | 0.00239
C82G A111G A120U C150U C169U U176C | 0.0051
C82G A111G A120U C150U C169U U176A | 0.00523
C82G A111G A120U C150U C169U U176G | 0.00214
C82G A111G A120U C150U | 0.0348
C82G A111G A120U C150G | 0.00849
C82G A111G A120U C150A | 0.00949
C82G A111G A120U C150U U176G | 0.00497
C82G A111G A120U C150U U176C | 0.0164
C82G A111G A120U C150U U176A | 0.0115
C82G A111G A120U C150A C169A U176A | 0.00549
C82G A111G A120U C150A C169A U176G | 0.00223
C82G A111G A120U C150A C169A U176C | 0.00424
C82G A111G A145U C150G U176A | 0.0185
C82G A111G A145U C150G U176G | 0.00715
C82G A111G A145U C150G U176C | 0.0287
C82G A111G A145G C150A C169U U176G | 0.00674
C82G A111G A145G C150A C169U U176A | 0.0155
C82G A111G A145G C150A C169U U176C | 0.0162
C82G A111G A120U C150G C169G U176C | 0.00486
C82G A111G A120U C150G C169G U176G | 0.00263

Variant | reverse-splicing fitness
C82G A111G A120U C150G C169G U176A | 0.00638
C82G A111G A145U C150A C169U U176G | 0.00554
C82G A111G A145U C150A C169U U176A | 0.0141
C82G A111G A145U C150A C169U U176C | 0.0148
C82G A111G C169U U176A | 0.0155
C82G A111G C169U U176C | 0.0177
C82G A111G A145G C150A C169G U176A | 0.0196
C82G A111G A145G C150A C169G U176G | 0.006
C82G A111G A145G C150A C169G U176C | 0.0258
C82G A111G A145U C150U C169A | 0.00966
C82G A111G A145U C150U C169U | 0.0113
C82G A111G A145U C150U C169G | 0.00988
C82G A111G A120U C150G U176A | 0.00529
C82G A111G A120U C150G U176G | 0.00299
C82G A111G A120U C150G U176C | 0.00821
C82G A111G A145U C150U U176A | 0.154
C82G A111G A145U C150U U176C | 0.165
C82G A111G A145U C150U U176G | 0.0614
C82G A111G A145C C150U C169U | 0.0102
C82G A111G A145C C150U C169G | 0.00753
C82G A111G A145C C150U C169A | 0.00783

Variant | reverse-splicing fitness
C82G A111G C169A U176C | 0.0224
C82G A111G C169A U176G | 0.00537
C82G A111G C169A U176A | 0.0162
C82G A111G A120U C150A U176C | 0.00806
C82G A111G A120U C150A U176A | 0.0074
C82G A111G A120U C150A U176G | 0.00368
C82G A111G A145C C169G U176C | 0.0131
C82G A111G A145C C169G U176G | 0.00501
C82G A111G A145C C169G U176A | 0.022
C82G A111G A145U C150G C169A U176G | 0.00637
C82G A111G A145U C150G C169A U176C | 0.0155
C82G A111G A145U C150G C169A U176A | 0.0126
C82G A111G A145G C150G C169G U176G | 0.0064
C82G A111G A145G C150G C169G U176A | 0.011
C82G A111G A145G C150G C169G U176C | 0.0126
C82G A111G C150G C169U U176A | 0.00973
C82G A111G C150G C169U U176C | 0.0165
C82G A111G C150G C169U U176G | 0.008
C82G A111G A145U C150A C169A U176C | 0.0131
C82G A111G A145U C150A C169A U176A | 0.0154
C82G A111G A145U C150A C169A U176G | 0.00645

Variant | reverse-splicing fitness
C82G A111G A145C C150A | 0.0192
C82G A111G A145C C150G | 0.0378
C82G A111G A145C C150U | 0.0841
C82G A111G A120U U176C | 0.0294
C82G A111G A120U U176A | 0.018
C82G A111G A120U U176G | 0.00562
C82G A111G A145C C150A U176G | 0.00955
C82G A111G A145C C150A U176C | 0.0173
C82G A111G A145C C150A U176A | 0.0205
C82G A111G A145C C150U C169A U176C | 0.00686
C82G A111G A145C C150U C169A U176A | 0.0123
C82G A111G A145C C150U C169A U176G | 0.00694
C82G A111G A120U C150A C169G U176G | 0.00187
C82G A111G A120U C150A C169G U176A | 0.00749
C82G A111G A120U C150A C169G U176C | 0.00399
C82G A111G A145U C169U U176G | 0.00489
C82G A111G A145U C169U U176A | 0.0142
C82G A111G A145U C169U U176C | 0.0127
C82G A111G A120U C150G C169U | 0.0064
C82G A111G A120U C150G C169A | 0.00761
C82G A111G A120U C150G C169G | 0.00678
